Laboratory results as given in the supplement of paper PMC12667976.
± gives the standard error.

B1: library; numbered along this chain (parent)
chain: MATDAALRRLLRLHRTEIAVAVDSAFPLLHALADHDVVPEDKFQETLHLKEKEGCPQAFHALLSWLLTQDSTAILDFWRVLFKDYNLERYGRLQPILDSFPKDVDLSQPRKGRKPPAVPKALVPPPRLPTKRKASEEARAAAPAALTPRGTASPGSQLKAKPPKKPESSAEQQRLPLGNGIQTMSASVQRAVAMSSGDVPGARGAVEGILIQQVFESGGSKKCIQVGGEFYTPSKFEDSGSGKNKARSSSGPKPLVRAKGAQGAAPGGGEARLGQQGSVPAPLALPSDPQLHQKNEDECAVCRDGGELICCDGCPRAFHLACLSPPLREIPSGTWRCSSCLQATVQEVQPRAEEPRPQEPPVETPLPPGLRSAGEEVRGPPGEPLAGMDTTLVYKHLPAPPSAAPLPGLDSSALHPLLCVGPEGQQNLAPGARCGVCGDGTDVLRCTHCAAAFHWRCHFPAGTSRPGTGLRCRSCSGDVTPAPVEGVLAPSPARLAPGPAKDDTASHEPALHRDDLESLLSEHTFDGILQWAIQSMARPAAPFPS

Variants of: B1
Assay: AIRE transcriptional activation functional score (insulin promoter-GFP; nonsense median 0, synonymous median 1) (normalised score); higher = higher AIRE activity (more reporter activation)
Conditions: with insulin promoter-GFP reporter in HEK293
Procedure: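 Deep mutational scan of full-length human AIRE (codon-optimized cDNA, DT-POPCode NNN libraries over three regions) integrated at a Bxb1 landing pad in HEK293 cells carrying an insulin core promoter-GFP reporter at a Flp-In site. Cells were sorted for the top 10% GFP about 14 days after transfection. Variant frequency log-ratios (select vs non-select, TileSeq) were rescaled so that the nonsense median is 0 and the synonymous median is 1, then averaged over biological replicates.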

AIRE transcriptional activation functional score: each site, then its substitutions
E270: Q 1.15 ± 0.33; T 0.69 ± 0.38; I 0.55 ± 0.37; S 0.795 ± 0.13; P 1.64 ± 0.2; N 1.01 ± 0.45; H 1.56 ± 0.082; C 1.08 ± 0.53; V 1.36 ± 0.34; D 1.37 ± 0.18; W 1.36 ± 0.024; Y 1.38 ± 0.056; M 1.2 ± 0.07; F 0.977 ± 0.13; L 1.41 ± 0.26; K 0.735 ± 0.032; R 0.723 ± 0.14; G 1.11 ± 0.2; A 0.795 ± 0.25
P286: F 1.54 ± 0.18; K 0.495 ± 0.61; L 1.14 ± 0.32; Q 1.07 ± 0.083; I 0.986 ± 0.4; T 1.07 ± 0.25; H 0.652 ± 0.12; G 1.05 ± 0.13; D 0.448 ± 0.17; W 1.61 ± 0.054; R 1.17 ± 0.44; Y 1.65 ± 1; V 1.26 ± 0.079; N 0.454 ± 0.077; A 0.97 ± 0.35; C 0.46 ± 0.43; S 0.834 ± 0.37; E 1 ± 0.042; M 1.36 ± 0.059
Q275: E 1.26 ± 0.19; A 0.853 ± 0.14; H 1.01 ± 0.13; K 1.06 ± 0.11; F 1.11 ± 0.12; P 1.19 ± 0.28; S 0.826 ± 0.52; D 1.33 ± 0.19; W 1.74 ± 0.026; M 1.04 ± 0.033; R 1.03 ± 0.15; I 1.12 ± 0.15; Y 1.35 ± 0.22; N 1.01 ± 0.25; T 1.11 ± 0.33; G 0.894 ± 0.33; C 1.08 ± 0.075; V 1.01 ± 0.2; L 1.03 ± 0.14
L285: I 1.02 ± 0.082; S 0.921 ± 0.25; Q 1.22 ± 0.074; P 1.17 ± 0.45; V 0.989 ± 0.16; F 0.835 ± 0.33; C 0.894 ± 0.2; K 0.713 ± 0.23; G 0.429 ± 0.3; T 0.845 ± 0.47; D 1.56 ± 0.21; R 1.02 ± 0.33; N 0.918 ± 0.047; Y 0.979 ± 0.08; A 1.37 ± 0.61; H 0.689 ± 0.094
A271: R 0.714 ± 0.37; D 1.22 ± 0.21; I 1.1 ± 0.18; C 1 ± 0.56; N 1.11 ± 0.13; K 1.1 ± 0.14; Q 0.693 ± 0.16; Y 0.83 ± 0.071; T 0.847 ± 0.23; E 1.1 ± 0.12; G 0.722 ± 0.38; M 1.38 ± 0.051; S 1.09 ± 0.17; P 1.02 ± 0.28; L 1.24 ± 0.29; F 0.885 ± 0.31; H 1.66 ± 0.047; V 1.09 ± 0.14; W 1.6 ± 0.061
P280: S 1.1 ± 0.41; Y 1.42 ± 0.076; I 0.993 ± 0.099; Q 1.14 ± 0.094; N 1.37 ± 0.042; E 1.13 ± 0.23; A 0.981 ± 0.21; H 1.04 ± 0.14; V 1.2 ± 0.15; F 1.58 ± 0.24; M 1.23 ± 0.074; R 1.01 ± 0.22; G 1.17 ± 0.45; L 1.28 ± 0.27; D 0.642 ± 0.23; C 0.574 ± 0.13; T 1.04 ± 0.29; W -0.397 ± 0.28; K 0.978 ± 0.09
V279: T 0.815 ± 0.12; Q -0.249 ± 0.29; P 1.06 ± 0.19; F 1.69 ± 0.43; W 1.4 ± 0.13; C 1.36 ± 0.22; S 1.24 ± 0.4; E 1.08 ± 0.12; Y 1.26 ± 0.048; M 1.34 ± 0.095; D -0.0439 ± 0.22; L 1 ± 0.24; G 1.08 ± 0.14; N 0.603 ± 0.33; I 0.721 ± 0.43; K 0.637 ± 0.24; A 1.45 ± 0.19; H 1.06 ± 0.055; R 1.04 ± 0.18
A284: F 1.2 ± 0.18; Y 1.32 ± 0.18; M 0.962 ± 0.03; T 0.876 ± 0.2; L 1.02 ± 0.29; K 0.964 ± 0.18; V 1.06 ± 0.16; Q 1.39 ± 0.3; S 1.1 ± 0.28; P 0.905 ± 0.28; G 1.03 ± 0.21; N 0.828 ± 0.039; I 1.23 ± 0.24; W 1.16 ± 0.027; D 1.06 ± 0.14; C 0.943 ± 0.11; H 0.932 ± 0.3; R 1.12 ± 0.15; E 0.63 ± 0.16
A281: D 0.674 ± 0.04; G 1.5 ± 0.098; M 0.425 ± 0.077; Q 1.02 ± 0.46; I 0.957 ± 0.46; K 1.67 ± 0.12; S 0.99 ± 0.19; P 0.84 ± 0.2; C 0.996 ± 0.17; T 0.867 ± 0.14; E -0.175 ± 0.053; L 1.31 ± 0.25; W 1.53 ± 0.049; H 1.11 ± 0.085; R 1.15 ± 0.39; N 0.445 ± 0.21; V 0.872 ± 0.29; Y 1.32 ± 0.046; F 1.63 ± 0.22
P282: F 0.638 ± 0.14; E 0.555 ± 0.085; S 0.614 ± 0.22; H 0.91 ± 0.075; R 0.839 ± 0.35; Q 0.976 ± 0.13; W 1.1 ± 0.065; D 1.05 ± 0.057; T 1.27 ± 0.22; L 1.31 ± 0.25; C 2.16 ± 0.071; V 1.38 ± 0.26; G 1.03 ± 0.24; K 1.2 ± 0.063; I 1.43 ± 0.19; A 0.929 ± 0.3; N -0.335 ± 0.22; Y 1.17 ± 0.27; M 1.1 ± 0.029
G274: Q 0.131 ± 0.15; W 1.46 ± 0.045; K 1.24 ± 0.055; N 1 ± 0.34; R 0.983 ± 0.14; I 0.929 ± 0.32; S 1.09 ± 0.32; P 0.734 ± 0.42; H 1.4 ± 0.14; F 0.89 ± 0.068; C 0.942 ± 0.21; V 1.05 ± 0.16; D 1.14 ± 0.15; L 1 ± 0.27; Y 1.07 ± 0.028; T 0.86 ± 0.15; E 0.611 ± 0.097; A 0.889 ± 0.18
G269: L 1.36 ± 0.38; W 1.81 ± 0.065; R 1.13 ± 0.27; V 1.05 ± 0.17; S 1.2 ± 0.23; Y 0.676 ± 0.18; T 1.51 ± 0.13; N 0.306 ± 0.089; Q 0.849 ± 0.18; M 0.571 ± 0.041; P 1.44 ± 0.093
G277: H 0.919 ± 0.44; F 1.23 ± 0.49; A 1.46 ± 0.16; N 1.2 ± 0.24; C 1.38 ± 0.068; Q 0.825 ± 0.064; K 1.22 ± 0.26; E 1.3 ± 0.2; V 1.1 ± 0.19; R 1.21 ± 0.25; T 0.758 ± 0.045; Y 0.553 ± 0.1; S 0.459 ± 0.24; L 0.959 ± 0.17; P 0.526 ± 0.28; M 1.01 ± 0.086; I 1.24 ± 0.12
Q276: G 1.39 ± 0.29; M 1 ± 0.08; F 1.05 ± 0.044; W 0.869 ± 0.12; V 0.873 ± 0.11; I 1.83 ± 0.08; L 0.779 ± 0.25; Y 1.26 ± 0.065; S 0.925 ± 0.17; R 0.822 ± 0.37; T 1.14 ± 0.16; P 1.05 ± 0.092; K 0.954 ± 0.22; A 1.12 ± 0.1; N 1.52 ± 0.29; E 0.831 ± 0.28; H 1.26 ± 0.15; C 1.26 ± 0.039; D 1.11 ± 0.42
S287: G 1.22 ± 0.13; C 1.07 ± 0.13; D 0.579 ± 0.25; E 0.811 ± 0.19; F 0.994 ± 0.031; A 1.17 ± 0.32
L273: R 0.646 ± 0.2; H 0.264 ± 0.23; N 0.862 ± 0.052; Y 1.28 ± 0.28; P 1.11 ± 0.34; D 0.505 ± 0.15; F 0.977 ± 0.078; E 0.817 ± 0.051; S 0.975 ± 0.53; T 0.77 ± 0.41; K 0.434 ± 0.14; I 1.07 ± 0.28; W 1.37 ± 0.051; C 0.741 ± 0.15; G 0.95 ± 0.18; A 0.967 ± 0.28; M 1.19 ± 0.068; Q 1.72 ± 0.43; V 1.02 ± 0.25
S278: I 1.04 ± 0.18; K 1.28 ± 0.24; G 1.34 ± 0.16; V 1.09 ± 0.31; D 0.859 ± 0.21; F 1 ± 0.2; L 1.01 ± 0.28; P 1.12 ± 0.29; W 1.19 ± 0.12; Q 1.16 ± 0.17; C 0.735 ± 0.17; R 0.819 ± 0.16; N 0.723 ± 0.3; M 1.35 ± 0.14; A 0.851 ± 0.21; E 0.763 ± 0.2; T 1.23 ± 0.46; Y 1.29 ± 0.17; H 1.22 ± 0.16
L283: A 1.02 ± 0.32; D 1.01 ± 0.17; Y 1.19 ± 0.19; N 0.486 ± 0.18; K 1.19 ± 0.23; E 0.987 ± 0.2; Q 0.784 ± 0.11; G 0.798 ± 0.17; H 1.15 ± 0.15; T 1.02 ± 0.36; S 1.01 ± 0.19; M 1.34 ± 0.034; P 0.953 ± 0.21; I 0.854 ± 0.18; R 1 ± 0.23; W 1.14 ± 0.032; C 0.771 ± 0.21; V 1.12 ± 0.096; F 1.17 ± 0.21
R272: M 1.31 ± 0.061; P 0.879 ± 0.33; E 1.08 ± 0.17; W 0.893 ± 0.044; V 0.896 ± 0.33; T 0.941 ± 0.33; N 1.37 ± 0.067; G 0.842 ± 0.29; H 0.444 ± 0.15; A 0.71 ± 0.27; I 1.08 ± 0.23; F 1.09 ± 0.24; Y 0.677 ± 0.23; Q 0.947 ± 0.41; D 1.21 ± 0.23; S 1.02 ± 0.3; L 1.01 ± 0.29; K 0.494 ± 0.23; C 1.3 ± 0.18
